According to patent US20180193477A1 (Zymeworks, published 2018):

How the values were obtained:
[1] = biological target: T1, Recombinant CD3epsilon/delta Fc fusion protein (Sino Biological) (UniProt P07766 23-126; P04234 22-105); experiment: SPR, BioRad ProteOn XPR36, 25 C, anti-Fc capture chip, Equilibrium Fit model, mean of three runs
T1 construct: Bought reagent; also called recombinant CD3 fusion protein; CD3 antigen; not shown: Fc part of the bought fusion protein; not described

[2] = biological target: T1, Recombinant CD3epsilon/delta Fc fusion …; experiment: SPR (summary of Example 6)
[3] = biological target: T2, CD3 on human CD3+ Jurkat T cells (human, UniProt P07766 23-207); experiment: whole cell FACS binding on Jurkat cells, apparent affinity
T2 construct: whole, on cells; CD3 is a complex of several chains on the cell; also called CD3 epsilon; CD3e
T2 sequence (P07766 23-207): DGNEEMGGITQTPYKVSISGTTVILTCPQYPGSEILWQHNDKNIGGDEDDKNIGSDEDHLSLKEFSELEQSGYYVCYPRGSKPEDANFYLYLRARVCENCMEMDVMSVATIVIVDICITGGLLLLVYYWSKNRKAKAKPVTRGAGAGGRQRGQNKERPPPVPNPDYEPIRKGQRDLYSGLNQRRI

T1 sequence (P07766 23-126, stated change not applied, chain 1 of 2): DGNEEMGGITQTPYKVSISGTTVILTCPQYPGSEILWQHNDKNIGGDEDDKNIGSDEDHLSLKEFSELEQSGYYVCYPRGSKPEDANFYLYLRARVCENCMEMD
T1 sequence (P04234 22-105, stated change not applied, chain 2 of 2): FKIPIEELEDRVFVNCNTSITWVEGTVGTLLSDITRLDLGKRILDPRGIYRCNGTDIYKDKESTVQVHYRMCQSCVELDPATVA

B1: v15193, humanized bispecific anti-CD3-CD19 antigen-binding construct (humanized HD37 Fab / humanized OKT3 scFv hVH1/hVL2) (bispecific antibody, human IgG1, kappa, L234A L235A)
heavy: not shown
chain: QVQLVQSGGGVVQPGRSLRLSCKASGYTFTRYTMHWVRQAPGKGLEWIGYINPSRGYTNYNQKVKGRFTISTDKSKNTAYLQMDSLRAEDTGVYFCARYYDDHYSLDYWGQGTLVTVSSVEGGSGGSGGSGGSGGVDDIQMTQSPSSLSASVGDRVTITCSASSSVSYMNWYQQKPGKAPKRLIYDTSKLASGVPSRFSGSGSGTDYTLTISSLQPEDAATYYCQQWSSNPFTFGQGTKLEIKAAEPKSSDKTHTCPPCPAPEAAGGPSVFLFPPKPKDTLMISRTPEVTCVVVSVSHEDPEVKFNWYVDGVEVHNAKTKPREEQYNSTYRVVSVLTVLHQDWLNGKEYKCKVSNKALPAPIEKTISKAKGQPREPQVYVLPPSRDELTKNQVSLLCLVKGFYPSDIAVEWESNGQPENNYLTWPPVLDSDGSFFLYSKLTVDKSRWQQGNVFSCSVMHEALHNHYTQKSLSLSPG
light: DIQLTQSPSSLSASVGDRATITCRASQSVDYEGDSYLNWYQQKPGKAPKLLIYDASNLVSGIPSRFSGSGSGTDFTLTISSVQPEDAATYYCQQSTEDPWTFGCGTKLEIKRTVAAPSVFIFPPSDEQLKSGTASVVCLLNNFYPREAKVQWKVDNALQSGNSQESVTEQDSKDSTYSLSSTLTLSKADYEKHKVYACEVTHQGLSSPVTKSFNRGEC
notes: also called variant 15193
For B1, the Kd [1] was 370 nM.

B2: v15192, humanized bispecific anti-CD3-CD19 antigen-binding construct (humanized HD37 Fab / humanized OKT3 scFv hVH1/hVL1) (bispecific antibody, human IgG1, kappa, L234A L235A)
heavy: not shown
chain: QVQLVQSGGGVVQPGRSLRLSCKASGYTFTRYTMHWVRQAPGKGLEWIGYINPSRGYTNYNQKVKGRFTISTDKSKNTAYLQMDSLRAEDTGVYFCARYYDDHYSLDYWGQGTLVTVSSVEGGSGGSGGSGGSGGVDDIQMTQSPSSLSASVGDRVTITCSASSSVSYMNWYQQKPGKAPKRWIYDTSKLASGVPSRFSGSGSGTDYTLTISSLQPEDAATYYCQQWSSNPFTFGQGTKLEIKAAEPKSSDKTHTCPPCPAPEAAGGPSVFLFPPKPKDTLMISRTPEVTCVVVSVSHEDPEVKFNWYVDGVEVHNAKTKPREEQYNSTYRVVSVLTVLHQDWLNGKEYKCKVSNKALPAPIEKTISKAKGQPREPQVYVLPPSRDELTKNQVSLLCLVKGFYPSDIAVEWESNGQPENNYLTWPPVLDSDGSFFLYSKLTVDKSRWQQGNVFSCSVMHEALHNHYTQKSLSLSPG
light: DIQLTQSPSSLSASVGDRATITCRASQSVDYEGDSYLNWYQQKPGKAPKLLIYDASNLVSGIPSRFSGSGSGTDFTLTISSVQPEDAATYYCQQSTEDPWTFGCGTKLEIKRTVAAPSVFIFPPSDEQLKSGTASVVCLLNNFYPREAKVQWKVDNALQSGNSQESVTEQDSKDSTYSLSSTLTLSKADYEKHKVYACEVTHQGLSSPVTKSFNRGEC
notes: also called variant 15192
B2: binds [2].

B3: v15194, humanized bispecific anti-CD3-CD19 antigen-binding construct (humanized HD37 Fab / humanized OKT3 scFv hVH2/hVL1) (bispecific antibody, human IgG1, kappa, L234A L235A)
heavy: not shown
chain: QVQLVQSGGGVVQPGRSLRLSCKASGYTFTRYTMHWVRQAPGKGLEWIGYINPSRGYTNYNQKVKGRFTISTDNSKNTAYLQMDSLRAEDTGVYFCARYYDDHYSLDYWGQGTLVTVSSVEGGSGGSGGSGGSGGVDDIQMTQSPSSLSASVGDRVTITCSASSSVSYMNWYQQKPGKAPKRWIYDTSKLASGVPSRFSGSGSGTDYTLTISSLQPEDAATYYCQQWSSNPFTFGQGTKLEIKAAEPKSSDKTHTCPPCPAPEAAGGPSVFLFPPKPKDTLMISRTPEVTCVVVSVSHEDPEVKFNWYVDGVEVHNAKTKPREEQYNSTYRVVSVLTVLHQDWLNGKEYKCKVSNKALPAPIEKTISKAKGQPREPQVYVLPPSRDELTKNQVSLLCLVKGFYPSDIAVEWESNGQPENNYLTWPPVLDSDGSFFLYSKLTVDKSRWQQGNVFSCSVMHEALHNHYTQKSLSLSPG
light: DIQLTQSPSSLSASVGDRATITCRASQSVDYEGDSYLNWYQQKPGKAPKLLIYDASNLVSGIPSRFSGSGSGTDFTLTISSVQPEDAATYYCQQSTEDPWTFGCGTKLEIKRTVAAPSVFIFPPSDEQLKSGTASVVCLLNNFYPREAKVQWKVDNALQSGNSQESVTEQDSKDSTYSLSSTLTLSKADYEKHKVYACEVTHQGLSSPVTKSFNRGEC
notes: also called variant 15194
In the case of B3, the Kd [1] is reported as 349 nM.

B4: v15195, humanized bispecific anti-CD3-CD19 antigen-binding construct (humanized HD37 Fab / humanized OKT3 scFv hVH2/hVL2) (bispecific antibody, human IgG1, kappa, L234A L235A)
heavy: not shown
chain: QVQLVQSGGGVVQPGRSLRLSCKASGYTFTRYTMHWVRQAPGKGLEWIGYINPSRGYTNYNQKVKGRFTISTDNSKNTAYLQMDSLRAEDTGVYFCARYYDDHYSLDYWGQGTLVTVSSVEGGSGGSGGSGGSGGVDDIQMTQSPSSLSASVGDRVTITCSASSSVSYMNWYQQKPGKAPKRLIYDTSKLASGVPSRFSGSGSGTDYTLTISSLQPEDAATYYCQQWSSNPFTFGQGTKLEIKAAEPKSSDKTHTCPPCPAPEAAGGPSVFLFPPKPKDTLMISRTPEVTCVVVSVSHEDPEVKFNWYVDGVEVHNAKTKPREEQYNSTYRVVSVLTVLHQDWLNGKEYKCKVSNKALPAPIEKTISKAKGQPREPQVYVLPPSRDELTKNQVSLLCLVKGFYPSDIAVEWESNGQPENNYLTWPPVLDSDGSFFLYSKLTVDKSRWQQGNVFSCSVMHEALHNHYTQKSLSLSPG
light: DIQLTQSPSSLSASVGDRATITCRASQSVDYEGDSYLNWYQQKPGKAPKLLIYDASNLVSGIPSRFSGSGSGTDFTLTISSVQPEDAATYYCQQSTEDPWTFGCGTKLEIKRTVAAPSVFIFPPSDEQLKSGTASVVCLLNNFYPREAKVQWKVDNALQSGNSQESVTEQDSKDSTYSLSSTLTLSKADYEKHKVYACEVTHQGLSSPVTKSFNRGEC
notes: Unconjugated construct as used in SPR and whole cell FACS; also called variant v15195
B4 gave a Kd [1] of 427 nM and a Kd [3] of 44.7 nM.
